B1: Claudin-2 (Homo sapiens), P57739 (parent)
chain: MASLGLQLVGYILGLLGLLGTLVAMLLPSWKTSSYVGASIVTAVGFSKGLWMECATHSTGITQCDIYSTLLGLPADIQAAQAMMVTSSAISSLACIISVVGMRCTVFCQESRAKDRVAVAGGVFFILGGLLGFIPVAWNLHGILRDFYSPLVPDSMKFEIGEALYLGIISSLFSLIAGIILCFSCSSQRNRSNYYDAYQAQPLATRSSPRPGQPPKVKSEFNSYSLTGYV

Variants of: B1
Conditions: with ap2m1_human AP2M1, Q96CW1
Chain of ap2m1_human AP2M1, Q96CW1 (Q96CW1 whole entry): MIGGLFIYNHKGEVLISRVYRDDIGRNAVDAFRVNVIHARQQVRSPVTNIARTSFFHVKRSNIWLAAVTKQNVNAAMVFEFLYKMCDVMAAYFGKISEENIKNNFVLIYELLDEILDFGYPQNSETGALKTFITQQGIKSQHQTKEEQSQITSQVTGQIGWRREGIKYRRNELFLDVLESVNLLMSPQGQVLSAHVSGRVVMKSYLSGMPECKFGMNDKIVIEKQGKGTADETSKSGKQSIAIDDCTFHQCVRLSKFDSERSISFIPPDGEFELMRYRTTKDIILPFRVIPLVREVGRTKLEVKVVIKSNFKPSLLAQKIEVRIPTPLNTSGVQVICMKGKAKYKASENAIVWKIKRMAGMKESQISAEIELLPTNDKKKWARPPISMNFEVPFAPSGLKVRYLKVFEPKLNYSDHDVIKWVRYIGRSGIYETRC

Row | effect of a mutation on the interaction | Variant
1 | disrupting interaction strength | Y67A;L70A
2 | disrupting interaction strength | Y67A;L70A;Y148A;L151A
3 | decreasing interaction strength | Y148A;L151A

Variants of: B1
Conditions: with ap2m1_human AP2M1, Q96CW1
Remark: another data set of the same source

Row | effect of a mutation on the interaction | Variant
4 | disrupting interaction | Y67A;L70A;Y148A;L151A
